According to PMC8694150, “Characterization of NucPNP and NucV involved in the early steps of nucleocidin biosynthesis in Streptomyces calvus” (RSC Advances, 2021):

What was measured:
[1] = system: T1, Nc1ncnc2c1ncn2[C@@H]1O[C@H](CO)[C@@H](O)[C@H]1O; experiment: purified protein; assay type: biochemical, Streptomyces calvus; details: 10 mM phosphate, 50 mM Tris-HCl, 150 mM NaCl, pH 7.5, room temperature, apparent
T1 construct: expressed in E. coli SHuffle T7 Express lysY; amylose then Ni-NTA
Description: (§1) HPLC of adenine formation, Michaelis-Menten fit on MBP-NucPNP

[2] = system: T2, CSC[C@H]1O[C@@H](n2cnc3c(N)ncnc32)[C@H](O)[C@@H]1O; experiment: purified protein; assay type: biochemical, Streptomyces calvus; details: 10 mM phosphate, 50 mM Tris-HCl, 150 mM NaCl, pH 7.5, room temperature, apparent
T2 construct: expressed in E. coli SHuffle T7 Express lysY; amylose then Ni-NTA
Description: as §1

ScAPRT = biological target: T3, ScAPRT (Streptomyces calvus, UniProt A0A514K045); experiment: HPLC of AMP formation, Michaelis-Menten fit; assay type: biochemical; details: 10 mM MgCl2, 50 mM Tris-HCl, 150 mM NaCl, pH 7.5, room temperature, apparent
T3 construct: gene apt; N-terminal 6-His tag kept; expressed in E. coli BL21(DE3); housekeeping APRT, not NucV
Description: HPLC of AMP formation, Michaelis-Menten fit on ScAPRT

NucV = biological target: T4, NucV (Streptomyces calvus, UniProt A0A142C6V8); experiment: HPLC of AMP formation, Michaelis-Menten fit; assay type: biochemical; details: 10 mM MgCl2, 50 mM Tris-HCl, 150 mM NaCl, pH 7.5, room temperature, apparent
T4 construct: gene apt; N-terminal 6-His tag kept; expressed in E. coli BL21(DE3)
Description: HPLC of AMP formation, Michaelis-Menten fit on NucV

purified protein = substrate: Nc1ncnc2nc[nH]c12; experiment: purified protein; details: 500 μM PRPP, 10 mM MgCl2, 50 mM Tris-HCl, 150 mM NaCl, pH 7.5, room temperature, apparent
[3] = substrate: O=P(O)(O)OC[C@H]1O[C@H](OP(=O)(O)OP(=O)(O)O)[C@H](O)[C@@H]1O; experiment: HPLC of AMP formation, Michaelis-Menten fit; assay type: biochemical, Escherichia coli; details: 500 μM adenine, 10 mM MgCl2, 50 mM Tris-HCl, 150 mM NaCl, pH 7.5, room temperature, apparent

T4 sequence (A0A142C6V8 entry or part of it): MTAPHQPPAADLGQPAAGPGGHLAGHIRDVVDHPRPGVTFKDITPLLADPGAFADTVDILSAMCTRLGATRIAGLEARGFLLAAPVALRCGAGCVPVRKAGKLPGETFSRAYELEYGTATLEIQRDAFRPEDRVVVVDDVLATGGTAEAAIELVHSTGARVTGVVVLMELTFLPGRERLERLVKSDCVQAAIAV
T3 sequence (A0A514K045 entry or part of it): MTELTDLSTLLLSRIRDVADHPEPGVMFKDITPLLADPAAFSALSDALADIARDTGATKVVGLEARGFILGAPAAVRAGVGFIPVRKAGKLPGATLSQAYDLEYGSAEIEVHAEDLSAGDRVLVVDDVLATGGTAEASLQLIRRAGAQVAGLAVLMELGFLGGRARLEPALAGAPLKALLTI

**Q.** Which results are given for MBP-NucPNP (Streptomyces calvus)?
**A.** Km [1]: 90.3 ± 8.2 µM; kcat [1]: 0.49 ± 0.02 s⁻¹; kcat/Km [1]: 5500 M⁻¹ s⁻¹; Km [2]: 43.5 ± 4.1 µM; kcat [2]: 0.15 ± 0.01 s⁻¹; kcat/Km [2]: 3400 M⁻¹ s⁻¹

**Q.** With O=P(O)(O)OC[C@H]1O[C@H](OP(=O)(O)OP(=O)(O)O)[C@H](O)[C@@H]1O [compound 5, 5-phospho-α-D-ribose-1-diphosphate] as the molecule, how does the Km (ScAPRT; 500 μM adenine) read?
**A.** 9.8 ± 2 µM

**Q.** And the Km (NucV; 500 μM adenine)?
**A.** 21.4 ± 3 µM

**Q.** For Nc1ncnc2nc[nH]c12 [compound 3, adenine], which Km (ScAPRT; 500 μM PRPP) is on record?
**A.** 2.8 ± 0.6 µM

**Q.** And the Km (NucV; 500 μM PRPP)?
**A.** 6.8 ± 1.4 µM

B1: EcAPRT (Escherichia coli K-12) (protein)
chain: MTATAQQLEYLKNSIKSIQDYPKPGILFRDVTSLLEDPKAYALSIDLLVERYKNAGITKVVGTEARGFLFGAPVALGLGVGFVPVRKPGKLPRETISETYDLEYGTDQLEIHVDAIKPGDKVLVVDDLLATGGTIEATVKLIRRLGGEVADAAFIINLFDLGGEQRLEKQGITSYSLVPFPGH
notes: N-terminal 6-His tag kept; expressed in E. coli BL21(DE3)
**Q.** With B1 as the molecule, how does the Km (purified protein) read?
**A.** 9.6 ± 2.5 µM

**Q.** And the kcat (purified protein)?
**A.** 27.3 ± 1.9 s⁻¹

**Q.** And the Km [3]?
**A.** 46.4 ± 9.0 µM

**Q.** And the kcat [3]?
**A.** 15.9 ± 1.3 s⁻¹
